The target in test [1] is T1, His-tagged human PD-1 (human, UniProt Q15116 25-167, limits assumed).
T1 construct: also called PD-1-His; huPD-1-His; not shown: histidine tag
The test is described as follows: Octet, antibody on AHC biosensors, His-tagged PD-1 as analyte. In general terms: BLI is a label-free optical method that tracks binding on a fibre tip over time.

The target in test [2] is T1, His-tagged human PD-1. The test is described as follows: Biacore (SPR), mAb captured on Protein A chip, histidine-tagged human PD-1 as analyte.
Test [3] has as its target T1, His-tagged human PD-1. The test is described as follows: Octet, His-tagged PD-1 as analyte.
Test [4] concerns the target T1, His-tagged human PD-1. The test is described as follows: Octet, antibody on AHC biosensors, His-tagged human PD-1 as analyte.
The next test has as its target cynomolgus CTLA-4 (cynomolgus, UniProt G7PL88 36-161). The test is described as follows: Octet (BLI), global fit, 1:1 binding model.
The target in the next test is human CTLA-4 (human, UniProt P16410 36-161, limits assumed). Nature of the test: Octet (BLI), global fit, 1:1 binding model.
Chain of human CTLA-4 (P16410 36-161 limits assumed): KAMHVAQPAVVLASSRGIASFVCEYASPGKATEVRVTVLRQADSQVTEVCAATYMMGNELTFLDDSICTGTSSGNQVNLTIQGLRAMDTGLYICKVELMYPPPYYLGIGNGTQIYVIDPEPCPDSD
For a further test, the target named is human PD-1 (human, UniProt Q15116 25-167, limits assumed). The test is described as follows: Octet (BLI), global fit, 1:1 binding model.
Chain of human PD-1 (Q15116 25-167 limits assumed): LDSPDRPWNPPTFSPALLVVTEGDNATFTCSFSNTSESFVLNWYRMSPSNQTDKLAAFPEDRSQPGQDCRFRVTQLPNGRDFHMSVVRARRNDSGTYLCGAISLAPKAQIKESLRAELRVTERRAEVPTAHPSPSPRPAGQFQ
For a further test, the target named is T2, cynomolgus PD-1 (cynomolgus, UniProt B0LAJ3 25-170).
T2 construct: also called cyno PD-1; not shown: carrier of the soluble construct (His tag or Fc)
T2 sequence (B0LAJ3 entry or part of it limits assumed, form in doubt): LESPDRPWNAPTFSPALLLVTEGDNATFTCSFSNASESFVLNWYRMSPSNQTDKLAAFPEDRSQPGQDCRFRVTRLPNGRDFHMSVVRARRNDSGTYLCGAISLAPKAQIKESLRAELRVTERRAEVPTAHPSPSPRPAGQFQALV
Nature of the test: Octet (BLI), global fit, 1:1 binding model.

This is an account of results in patent US20220204624A1 (Xencor, published 2022).

One may read the Kd as a measure of binding affinity in units of concentration.

Changes are numbered by the printed parent chain.

T1 sequence (Q15116 25-167 limits assumed): as the sequence (Q15116 25-167 limits assumed) above
Chain of cynomolgus CTLA-4 (G7PL88 entry or part of it limits assumed, form in doubt): as the sequence (P16410 36-161 limits assumed) above, with S14N, L106M counted along it

B1: XENP22553 (antibody, V domains shown)
VH: QIQLVQSGSELKKPGASVKVSCKASGYTFTHYGMNWVRQAPGQGLEWMGWINTYTGEPTYADGFTGRFVFSLDTSVSTAYLQISSLKAEDTAVYFCARDYYGSSPYWGQGTLVTVSS
VL: DVLMTQSPDSLAVSLGERATINCKSSQSIVHSNGNTYLEWYQQKPGQSPKLLIYKVSNRFSGVPDRFSGSGSGTDFTLTISSLQAEDVAVYYCFQGSHVPNTFGGGTKVEIK
As to B1, the dissociation constant Kd with His-tagged human PD-1 [1] is 0.015 to 0.019 µM; in the test with His-tagged human PD-1 [2], 0.0086 µM; in the test with His-tagged human PD-1 [3], around 0.018 µM.

B2: XENP26928 (antibody, V domains shown)
VH: B1 VH
VL: B1 VL with N33E
Regarding B2, the Kd in the test with His-tagged human PD-1 [4] worked out at 0.333 µM.

B3: XmAb20717 (bispecific antibody)
chain 1: not shown
chain 2: EIVLTQSPATLSASPGERVTLTCRASQSVGNDVAWYQQKPGQAPRLLINYASHRYTGVPDRFTGSGYGTEFTLTISSVQSEDFGVYYCQQDFSSPRTFGGGTKVEIKGKPGSGKPGSGKPGSGKPGSEVQLVESGGGLVKPGGSLRLSCVASGFTFSNYWMNWVRQAPGKGLEWVAEIRLYSNNYATHYAESVKGRFTISRDDSKSTLYLQMNNLKTEDTGVYYCTRYYGNYGGYFDVWGRGTLVTVSSEPKSSDKTHTCPPCPAPPVAGPSVFLFPPKPKDTLMISRTPEVTCVVVDVKHEDPEVKFNWYVDGVEVHNAKTKPREEQYNSTYRVVSVLTVLHQDWLNGKEYKCKVSNKALPAPIEKTISKAKGQPREPQVYTLPPSREQMTKNQVKLTCLVKGFYPSDIAVEWESNGQPENNYKTTPPVLDSDGSFFLYSKLTVDKSRWQQGNVFSCSVLHEALHSHYTQKSLSLSPGK
chain 3: not shown
In the case of B3, the dissociation constant (Kd) with cynomolgus CTLA-4 is around 0.023 µM; with human CTLA-4, around 0.0041 µM; in the test with human PD-1 it was 0.0014 µM; with cynomolgus PD-1, 0.0055 µM.
